# In patent publication US20260232840A1 (UNIVERSITY OF BRITISH COLUMBIA, published 2026):
# Tests used:
# aggregated SOD1 [1] = biological target: T1, aggregated SOD1 (UniProt P00441 2-154); assay: indirect ELISA; OD on aggregated SOD1 over OD on dimeric SOD1
# T1 construct: Same protein as Dim SOD1, in a different conformational state; also called Agg SOD1
# Method: (§1) Supernatants producing hybridoma cell cultures producing rabbit monoclonal antibodies are analyzed by indirect ELISA for antibody activity on plates coated with 1 μg/well of peptide or protein antigen. […] The binding of anti-SOD1 antibodies were also characterized by ratio analyzes.
# aggregated SOD1 [2] = biological target: T1, aggregated SOD1; assay: indirect ELISA; ratio of the EC50 values on aggregated and dimeric SOD1
# Method: as §1
# T1 sequence (P00441 2-154 limits assumed): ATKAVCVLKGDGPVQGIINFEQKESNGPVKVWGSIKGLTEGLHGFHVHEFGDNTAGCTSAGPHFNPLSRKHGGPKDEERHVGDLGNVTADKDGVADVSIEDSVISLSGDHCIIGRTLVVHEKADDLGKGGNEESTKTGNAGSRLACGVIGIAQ
Ab conc (ng/mL) at peak agg/dim OD ratio (aggregated SOD1 [1]) [ng/mL],Peak agg/dim OD ratio (aggregated SOD1 [1]),Ratio Agg/Dim SOD1 EC50 (aggregated SOD1 [2]),Binder
10.3,12.7,30.4,"rabbit anti-SOD1 antibody A-7-58 H1/L1 (antibody, V domains shown, Rabbit monoclonal antibody; also called A-58 H1 + A-58 L1) VH: QSVEESGGRLVTPGTPLTLTCTVSGIDLSSSVMAWVRQAPGKGLEWIGIITNRGNRYYAKWAKGRFTISRTSTTVGLKITSPTTADTATYFCGRGSVWGPGTLVTVSS VL: QVLTQTPASVSAAIGGTVTIKCQSSQSFLDDNDLAWYQKKPGRPPKRLIKSASTLDSGVPSRFSGSGSGTQFTLTISDVQCADAATYYCLGDYDCSVGDCSAFGGGTEVVVKG"
6.01,10.7,26.7,"rabbit anti-SOD1 antibody A-7-63 H2/L1 (antibody, Rabbit monoclonal antibody; also called A-63 H2 + A-63 L1) heavy: QSVGESGGGLVTPGTPLTLTCTVSGFSLSSYGVSWVRQAPGKGLEYIGFISTRGNPYYASWAKGRFTISKTSTTVDLKITSPTTEDTATYFCAGATVVGDSIWGPGTLVTVSSGQPKAPSVFPLAPCCGDTPSSTVTLGCLVKGYLPEPVTVTWNSGTLTNGVRTFPSVRQSSGLYSLSSVVSVTSSSQPVTCNVAHPATNTKVDKTVAPSTCSKPTCPPPELLGGPSVFIFPPKPKDTLMISRTPEVTCVVVDVSQDDPEVQFTWYINNEQVRTARPPLREQQFNSTIRVVSTLPIAHQDWLRGKEFKCKVHNKALPAPIEKTISKARGQPLEPKVYTMGPPREELSSRSVSLTCMINGFYPSDISVEWEKNGKAEDNYKTTPAVLDSDGSYFLYSKLSVPTSEWQRGDVFTCSVMHEALHNHYTQKSISRSPGK light: QVLTQTASSVSAAVGGTVTISCQSSQSVYKGYWQAWYQQKPGQPPKLLIYETSTLASGVPSRFSGSGSGTQFTLTISGVQCDDAATYYCAGGYSNNIYTFGGGTEVVVKGDPVAPTVLIFPPAADQVATGTVTIVCVANKYFPDVTVTWEVDGTTQTTGIENSKTPQNSADCTYNLSSTLTLTSTQYNSHKEYTCKVTQGTTSVVQSFNRGDC"
5.11,11.6,32.8,"rabbit anti-SOD1 antibody A-7-63 H3/L1 (antibody, Rabbit monoclonal antibody; also called A-63 H3 + A-63 L1) heavy: QSVEESGGGLVTPGTPLTLTCTVSGFSLSSYGVSWVRQAPGKGLEYIGFISTRGNPYYASWAKGRFTISKTSTTVDLKITSPTTEDTATYFCAGATVVGDSIWGPGTLVTVSSGQPKAPSVFPLAPCCGDTPSSTVTLGCLVKGYLPEPVTVTWNSGTLTNGVRTFPSVRQSSGLYSLSSVVSVTSSSQPVTCNVAHPATNTKVDKTVAPSTCSKPTCPPPELLGGPSVFIFPPKPKDTLMISRTPEVTCVVVDVSQDDPEVQFTWYINNEQVRTARPPLREQQFNSTIRVVSTLPIAHQDWLRGKEFKCKVHNKALPAPIEKTISKARGQPLEPKVYTMGPPREELSSRSVSLTCMINGFYPSDISVEWEKNGKAEDNYKTTPAVLDSDGSYFLYSKLSVPTSEWQRGDVFTCSVMHEALHNHYTQKSISRSPGK light: QVLTQTASSVSAAVGGTVTISCQSSQSVYKGYWQAWYQQKPGQPPKLLIYETSTLASGVPSRFSGSGSGTQFTLTISGVQCDDAATYYCAGGYSNNIYTFGGGTEVVVKGDPVAPTVLIFPPAADQVATGTVTIVCVANKYFPDVTVTWEVDGTTQTTGIENSKTPQNSADCTYNLSSTLTLTSTQYNSHKEYTCKVTQGTTSVVQSFNRGDC"
